Data published in US20220064286A1 (Genentech, published 2022).

T1: human TIGIT protein (human, UniProt Q495A1 22-141, limits assumed)
T1 construct: Recombinant protein (Genentech) used in ELISA screening and as SPR analyte; also called TIGIT antigen
T1 sequence: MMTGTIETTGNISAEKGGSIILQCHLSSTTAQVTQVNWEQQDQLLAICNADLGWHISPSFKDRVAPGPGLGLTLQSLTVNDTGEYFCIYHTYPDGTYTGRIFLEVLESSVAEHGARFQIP

T2: hTIGIT mutant L73A (human, UniProt Q495A1)
T2 sequence (TIGIT, looked up): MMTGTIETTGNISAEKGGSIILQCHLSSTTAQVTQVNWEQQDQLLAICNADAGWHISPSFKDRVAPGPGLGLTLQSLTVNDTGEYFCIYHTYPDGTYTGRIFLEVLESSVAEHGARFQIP

T3: hTIGIT mutant Y113A (human, UniProt Q495A1)
T3 sequence (TIGIT, looked up): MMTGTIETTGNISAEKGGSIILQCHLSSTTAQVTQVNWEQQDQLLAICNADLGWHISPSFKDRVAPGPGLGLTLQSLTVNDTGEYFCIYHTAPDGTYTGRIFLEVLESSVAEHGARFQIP

T4: human TIGIT on activated human primary T cells (human, UniProt Q495A1 22-244)
T4 construct: also called Human T cell
T4 sequence: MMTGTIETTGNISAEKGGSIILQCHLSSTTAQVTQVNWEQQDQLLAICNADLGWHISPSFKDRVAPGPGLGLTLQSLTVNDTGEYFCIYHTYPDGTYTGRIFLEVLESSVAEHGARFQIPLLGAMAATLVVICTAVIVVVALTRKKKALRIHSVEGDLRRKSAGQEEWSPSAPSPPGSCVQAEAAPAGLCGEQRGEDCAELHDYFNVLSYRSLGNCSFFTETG

T5: full-length human TIGIT on CHO cells (human, UniProt Q495A1 22-244)
T5 construct: also called CHO-hTIGIT; hu TIGIT
T5 sequence: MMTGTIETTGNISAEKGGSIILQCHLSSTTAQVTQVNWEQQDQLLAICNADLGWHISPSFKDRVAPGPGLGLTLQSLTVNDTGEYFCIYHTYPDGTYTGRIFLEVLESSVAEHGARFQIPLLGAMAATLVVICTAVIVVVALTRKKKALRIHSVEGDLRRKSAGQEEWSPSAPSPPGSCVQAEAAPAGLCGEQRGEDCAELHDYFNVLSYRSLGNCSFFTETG

T6: HA-tagged TIGIT (human, UniProt Q495A1 22-244)
T6 sequence: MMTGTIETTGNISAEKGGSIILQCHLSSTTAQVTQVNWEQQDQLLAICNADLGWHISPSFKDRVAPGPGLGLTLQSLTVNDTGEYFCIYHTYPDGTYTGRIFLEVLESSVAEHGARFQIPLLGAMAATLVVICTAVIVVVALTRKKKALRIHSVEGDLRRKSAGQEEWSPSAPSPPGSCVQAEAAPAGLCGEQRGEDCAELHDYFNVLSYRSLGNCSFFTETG


Experiments:
human TIGIT protein [1] = target: T1, human TIGIT protein; assay: SPR, captured mAb
[2] = target: T7, cynomolgus monkey (cyno) TIGIT protein (cynomolgus monkey, UniProt A0A7N9I9V4 89-209); assay: SPR, captured mAb
T7 sequence (A0A7N9I9V4 entry or part of it): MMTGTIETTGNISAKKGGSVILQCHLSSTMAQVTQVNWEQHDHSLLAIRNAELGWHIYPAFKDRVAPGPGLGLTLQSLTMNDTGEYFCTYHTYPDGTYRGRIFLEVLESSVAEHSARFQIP

hTIGIT mutant L73A = target: T2, hTIGIT mutant L73A; assay: SPR (BIACORE) KD normalized to WT, N=2
hTIGIT mutant Y113A = target: T3, hTIGIT mutant Y113A; assay: SPR (BIACORE) KD normalized to WT, N=2
human TIGIT protein [3] = target: T1, human TIGIT protein; assay: SPR (BIACORE) KD normalized to WT, N=2
[4] = target: T8, cynomolgus TIGIT on CHO cells (cynomolgus monkey, UniProt A0A7N9I9V4 89-312); assay: FACS blocking assay: labelled PVR-Fc (blocked ligand; text: cyPVR, scheme of FIG. 4A prints hPVR.Fc) on CHO cells expressing cyno TIGIT
T8 construct: whole, on cells; also called CHO-cyTIGIT; cyTIGIT
T8 sequence (A0A7N9I9V4 entry or part of it): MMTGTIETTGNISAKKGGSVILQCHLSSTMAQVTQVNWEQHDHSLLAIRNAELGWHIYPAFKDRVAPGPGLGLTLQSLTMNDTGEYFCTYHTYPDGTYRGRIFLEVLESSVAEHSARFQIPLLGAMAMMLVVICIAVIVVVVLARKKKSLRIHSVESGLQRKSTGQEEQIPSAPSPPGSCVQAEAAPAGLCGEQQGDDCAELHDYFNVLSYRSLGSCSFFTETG
Procedure: These studies were further validated in CHO-TIGIT PVR blocking experiments in which TIGIT-expressing CHO cells were incubated with labeled PVR-Fc fusion protein in the presence of anti-TIGIT antibody or an human IgG1 control (FIG. 4A).

human TIGIT protein [5] = target: T1, human TIGIT protein; assay: SPR, monovalent affinity
[6] = target: T7, cynomolgus monkey (cyno) TIGIT protein; assay: SPR, monovalent affinity
[7] = target: T4, human TIGIT on activated human primary …; assay: FACS, activated human T cells
Procedure: The OMT- and SD-derived anti-TIGIT clones were also tested for binding to human primary T cells by FACS analysis. Human PBMC were activated for with plate-bound anti-CD3 (5 μg/ml) and soluble anti-CD28 (2 μg/ml) for 2 days as described in Yu et al. Nature Immunology. 10: 48-57, 2009, which is incorporated herein by reference in its entirety. Cells were then washed and incubated with incubated with each anti-TIGIT antibody at the indicated concentrations and then detected via a FITC-labeled anti-hIgG antibody. Cells were also stained with anti-CD4, anti-CD8, and anti-CD25 (BD bioscience). Human CD4+(CD25+CD4+) and human CD8+(CD25+CD8+) T cells were assessed for binding by the anti-TIGIT clones by FACS. All samples were acquired on LSR-II or LSR-Fortessa instruments (BD Biosciences) and analyzed using FlowJo software (Treestar).

[8] = target: T5, full-length human TIGIT on CHO cells; assay: FACS, CHO cells expressing TIGIT
HA-tagged TIGIT = target: T6, HA-tagged TIGIT; assay: TR-FRET, HA-TIGIT with ST-CD226 on CHO cells; competitor CD226
Description: To test for the ability of the clones to block the TIGIT-CD226 interaction, TR-FRET (Time-resolved Fluorescence Resonance Energy Transfer) was used. First, human SNAP-tagged (ST) CD226 with non-permeant donor and acceptor fluorophores was expressed and labeled using CHO cells. The human ST-CD226 was co-expressed with HA-tagged TIGIT, in the presence or the absence of the OMT- and SD-derived anti-TIGIT antibody clones.

Binder | Kd (human TIGIT protein [1]) [nM] | koff (human TIGIT protein [1]) [s⁻¹] | kon (human TIGIT protein [1]) [M⁻¹ s⁻¹] | Kd [2] [nM] | koff [2] [s⁻¹] | kon [2] [M⁻¹ s⁻¹] | Binding affinity drop vs. WT (hTIGIT mutant L73A) [fold] | Binding affinity drop vs. WT (hTIGIT mutant Y113A) [fold] | Binding affinity drop vs. WT (human TIGIT protein [3]) [fold] | IC50 (read off the curve) [4] [nM] | Kd (human TIGIT protein [5]) [nM] | Kd [6] [nM] | EC50 [7] [nM] | EC50 [8] [nM] | IC50 (HA-tagged TIGIT) [nM]
4.1D3 (antibody, V domains shown, OMT rat-derived human antibody; also called 4.1D3.Q1) VH: QVQLQQSGPGLVKPSQTLSLTCAISGDSVSSNSAAWNWIRQSPSRGLEWLGKTYYRFKWYSDYAVSVKGRITINPDTSKNQFSLQLNSVTPEDTAVFYCTRESTTYDLLAGPFDYWGQGTLVTVSS VL: not shown | 0.43 | 0.00164 | 3.84e+06 | 3.33 | 0.00207 | 621000 | 2.6 | 5.6 | 1 | ~0.6 |  |  |  |  | 
4.1D3.Q1E (antibody, V domains shown) VH: EVQLQQSGPGLVKPSQTLSLTCAISGDSVSSNSAAWNWIRQSPSRGLEWLGKTYYRFKWYSDYAVSVKGRITINPDTSKNQFSLQLNSVTPEDTAVFYCTRESTTYDLLAGPFDYWGQGTLVTVSS VL: not shown | 0.56 | 0.00097 | 1.72e+06 | 3.22 | 0.00154 | 478000 |  |  |  |  | 0.56 | 3.2 | 1.36 | 1.04 | 45
10A7 (antibody, V domains shown) VH: EVQLVESGGGLTQPGKSLKLSCEASGFTFSSFTMHWVRQSPGKGLEWVAFIRSGSGIVFYADAVRGRFTISRDNAKNLLFLQMNDLKSEDTAMYYCARRPLGHNTFDSWGQGTLVTVSS VL: DIVMTQSPSSLAVSPGEKVTMTCKSSQSLYYSGVKENLLAWYQQKPGQSPKLLIYYASIRFTGVPDRFTGSGSGTDYTLTITSVQAEDMGQYFCQQGINNPLTFGDGTKLEIKR |  |  |  |  |  |  | > 11 | 1.2 |  |  |  |  |  |  | 
7.4A3.C96S.Q1E (antibody, V domains shown, also called 7.4A3.Q1E.C96S) VH: EVQLVQSGSDLKKPGASVRVSCKASGYTFTSYPMNWVRQAPGHGLEWMGWINTNTGNPTYVQGFTGRFVFSLDTSVNTAYLQISSLKAEDTAVYFCARTGGHTYDSYAFDVWGQGTMVTVSS VL: DIQLTQSPTFLSASVGDRVTITCRASQVISSSLAWYQQNPGKAPKLLIYAASTLQSGVPSRFSGSGSGTEFTLTISSLQPEDFVTYYCQHLHGYPSNFGQGTKVEIK | 2.97 | 0.000856 | 288000 | 2.01 | 0.000556 | 276000 |  |  | 1 | ~0.3 | 2.97 | 2.01 | 2.63 | 3.04 | 19.3
